We go through two substances from patent publication US20190322729A1.

Series [1] deals with T1, H1.0K180me2 peptide AKPVKASKPKKAKPVK(me2)PK.
T1 sequence: AKPVKASKPKKAKPVKPK

The test system of series [2] is T2, unmodified H1.0 peptide AKPVKASKPKKAKPVKPK
T2 sequence: AKPVKASKPKKAKPVKPK

Regarding “G9A methyltransferase (recombinant, NEB M0235S)”, in series [1], the “in vitro methylation, LC-MS: further methylated product H1.0K166me1K180me2” value was 1.27% of the total peptide in the reaction; the “in vitro methylation, LC-MS: further methylated product H1.0K174me1K180me3” value is reported as 1.06% of the total peptide in the reaction; the “in vitro methylation, LC-MS: further methylated product H1.0K174me3K175me3K177me1K180me2” value is 0.35% of the total peptide in the reaction; the “in vitro methylation, LC-MS: share of peptides further methylated” value is recorded as “only 2.64% of peptides are further methylated”. Further, in series [2], the “in vitro methylation with tritium-labeled methyl donor, autoradiography” value is “The appearance of a band at 4 kDa shows that The G9A methyltransferase capable of methylating H1.0 peptide” and the “in vitro methylation, LC-MS spectral counts: share of peptides dimethylated at K180” value is reported as 99.9% of all peptides.
Turning to “GLP methyltransferase (recombinant, Cayman Chemical 10755)”, the “in vitro methylation, LC-MS: share of peptides further methylated” value in series [1] is listed as 1.02% of peptides are further methylated. In addition, in series [2], the “in vitro methylation, LC-MS spectral counts: share of peptides dimethylated at K180” value was 96.6% of all peptides.
